Laboratory results reported in US20260218138A1, “ENGINEERED ACYLTRANSFERASES HAVING ALTERED SUBSTRATE SPECIFICITY” (KEZBIOSOLUTIONS GMBH, priority 2022, published 2026).

B1: Mutant A05: engineered murine acyltransferase, mutation K186E (protein)
chain: NKRPLWFICSGMGTQWRGMGLSLMRLDSFRESILRSDEAVKPLGVKVSDLLLSTDERTFDDIVHAFVSLTAIQIALIDLLTSVGLKPDGIIGHSLGEVACGYADGCLSQREAVLAAYWRGQCIKDAHLPPGSMAAVGLSWEECKQRCPAGVVPACHNSEDTVTISGPQAAVNEFVEQLKQEGVFAEEVRTGGLAFHSYFMEGIAPTLLQALKKVIREPRPRSARWLSTSIPEAQWQSSLARTSSAEYNVNNLVSPVLFQEALWHIPEHAVVLEIAPHALLQAVLKRGVKSSCTIIPLMKRDHKDNLEFFLTNLGKVHLT
B2: Mutant A07: engineered murine acyltransferase, mutation K186D (protein)
chain: NKRPLWFICSGMGTQWRGMGLSLMRLDSFRESILRSDEAVKPLGVKVSDLLLSTDERTFDDIVHAFVSLTAIQIALIDLLTSVGLKPDGIIGHSLGEVACGYADGCLSQREAVLAAYWRGQCIKDAHLPPGSMAAVGLSWEECKQRCPAGVVPACHNSEDTVTISGPQAAVNEFVEQLKQEGVFADEVRTGGLAFHSYFMEGIAPTLLQALKKVIREPRPRSARWLSTSIPEAQWQSSLARTSSAEYNVNNLVSPVLFQEALWHIPEHAVVLEIAPHALLQAVLKRGVKSSCTIIPLMKRDHKDNLEFFLTNLGKVHLT
B3: Mutant A08: engineered murine acyltransferase, mutation K285D (protein)
chain: NKRPLWFICSGMGTQWRGMGLSLMRLDSFRESILRSDEAVKPLGVKVSDLLLSTDERTFDDIVHAFVSLTAIQIALIDLLTSVGLKPDGIIGHSLGEVACGYADGCLSQREAVLAAYWRGQCIKDAHLPPGSMAAVGLSWEECKQRCPAGVVPACHNSEDTVTISGPQAAVNEFVEQLKQEGVFAKEVRTGGLAFHSYFMEGIAPTLLQALKKVIREPRPRSARWLSTSIPEAQWQSSLARTSSAEYNVNNLVSPVLFQEALWHIPEHAVVLEIAPHALLQAVLDRGVKSSCTIIPLMKRDHKDNLEFFLTNLGKVHLT
B4: Mutant A10: engineered murine acyltransferase, mutation R300D (protein)
chain: NKRPLWFICSGMGTQWRGMGLSLMRLDSFRESILRSDEAVKPLGVKVSDLLLSTDERTFDDIVHAFVSLTAIQIALIDLLTSVGLKPDGIIGHSLGEVACGYADGCLSQREAVLAAYWRGQCIKDAHLPPGSMAAVGLSWEECKQRCPAGVVPACHNSEDTVTISGPQAAVNEFVEQLKQEGVFAKEVRTGGLAFHSYFMEGIAPTLLQALKKVIREPRPRSARWLSTSIPEAQWQSSLARTSSAEYNVNNLVSPVLFQEALWHIPEHAVVLEIAPHALLQAVLKRGVKSSCTIIPLMKDDHKDNLEFFLTNLGKVHLT
B5: Mutant A11: engineered murine acyltransferase, mutation R300E (protein)
chain: NKRPLWFICSGMGTQWRGMGLSLMRLDSFRESILRSDEAVKPLGVKVSDLLLSTDERTFDDIVHAFVSLTAIQIALIDLLTSVGLKPDGIIGHSLGEVACGYADGCLSQREAVLAAYWRGQCIKDAHLPPGSMAAVGLSWEECKQRCPAGVVPACHNSEDTVTISGPQAAVNEFVEQLKQEGVFAKEVRTGGLAFHSYFMEGIAPTLLQALKKVIREPRPRSARWLSTSIPEAQWQSSLARTSSAEYNVNNLVSPVLFQEALWHIPEHAVVLEIAPHALLQAVLKRGVKSSCTIIPLMKEDHKDNLEFFLTNLGKVHLT
B6: Mutant A12: engineered murine acyltransferase, mutations K186D R300D (protein)
chain: NKRPLWFICSGMGTQWRGMGLSLMRLDSFRESILRSDEAVKPLGVKVSDLLLSTDERTFDDIVHAFVSLTAIQIALIDLLTSVGLKPDGIIGHSLGEVACGYADGCLSQREAVLAAYWRGQCIKDAHLPPGSMAAVGLSWEECKQRCPAGVVPACHNSEDTVTISGPQAAVNEFVEQLKQEGVFADEVRTGGLAFHSYFMEGIAPTLLQALKKVIREPRPRSARWLSTSIPEAQWQSSLARTSSAEYNVNNLVSPVLFQEALWHIPEHAVVLEIAPHALLQAVLKRGVKSSCTIIPLMKDDHKDNLEFFLTNLGKVHLT
B7: Mutant A13: engineered murine acyltransferase, mutations K186D R300E (protein)
chain: NKRPLWFICSGMGTQWRGMGLSLMRLDSFRESILRSDEAVKPLGVKVSDLLLSTDERTFDDIVHAFVSLTAIQIALIDLLTSVGLKPDGIIGHSLGEVACGYADGCLSQREAVLAAYWRGQCIKDAHLPPGSMAAVGLSWEECKQRCPAGVVPACHNSEDTVTISGPQAAVNEFVEQLKQEGVFADEVRTGGLAFHSYFMEGIAPTLLQALKKVIREPRPRSARWLSTSIPEAQWQSSLARTSSAEYNVNNLVSPVLFQEALWHIPEHAVVLEIAPHALLQAVLKRGVKSSCTIIPLMKEDHKDNLEFFLTNLGKVHLT
B8: Mutant A14: engineered murine acyltransferase, mutations K186E R300D (protein)
chain: NKRPLWFICSGMGTQWRGMGLSLMRLDSFRESILRSDEAVKPLGVKVSDLLLSTDERTFDDIVHAFVSLTAIQIALIDLLTSVGLKPDGIIGHSLGEVACGYADGCLSQREAVLAAYWRGQCIKDAHLPPGSMAAVGLSWEECKQRCPAGVVPACHNSEDTVTISGPQAAVNEFVEQLKQEGVFAEEVRTGGLAFHSYFMEGIAPTLLQALKKVIREPRPRSARWLSTSIPEAQWQSSLARTSSAEYNVNNLVSPVLFQEALWHIPEHAVVLEIAPHALLQAVLKRGVKSSCTIIPLMKDDHKDNLEFFLTNLGKVHLT
B9: Mutant A15: engineered murine acyltransferase, mutations K186E R300E (protein)
chain: NKRPLWFICSGMGTQWRGMGLSLMRLDSFRESILRSDEAVKPLGVKVSDLLLSTDERTFDDIVHAFVSLTAIQIALIDLLTSVGLKPDGIIGHSLGEVACGYADGCLSQREAVLAAYWRGQCIKDAHLPPGSMAAVGLSWEECKQRCPAGVVPACHNSEDTVTISGPQAAVNEFVEQLKQEGVFAEEVRTGGLAFHSYFMEGIAPTLLQALKKVIREPRPRSARWLSTSIPEAQWQSSLARTSSAEYNVNNLVSPVLFQEALWHIPEHAVVLEIAPHALLQAVLKRGVKSSCTIIPLMKEDHKDNLEFFLTNLGKVHLT
B10: Mutant A01: engineered murine acyltransferase, mutation T161A (protein)
chain: NKRPLWFICSGMGTQWRGMGLSLMRLDSFRESILRSDEAVKPLGVKVSDLLLSTDERTFDDIVHAFVSLTAIQIALIDLLTSVGLKPDGIIGHSLGEVACGYADGCLSQREAVLAAYWRGQCIKDAHLPPGSMAAVGLSWEECKQRCPAGVVPACHNSEDAVTISGPQAAVNEFVEQLKQEGVFAKEVRTGGLAFHSYFMEGIAPTLLQALKKVIREPRPRSARWLSTSIPEAQWQSSLARTSSAEYNVNNLVSPVLFQEALWHIPEHAVVLEIAPHALLQAVLKRGVKSSCTIIPLMKRDHKDNLEFFLTNLGKVHLT
B11: Mutant A02: engineered murine acyltransferase, mutation T161Y (protein)
chain: NKRPLWFICSGMGTQWRGMGLSLMRLDSFRESILRSDEAVKPLGVKVSDLLLSTDERTFDDIVHAFVSLTAIQIALIDLLTSVGLKPDGIIGHSLGEVACGYADGCLSQREAVLAAYWRGQCIKDAHLPPGSMAAVGLSWEECKQRCPAGVVPACHNSEDYVTISGPQAAVNEFVEQLKQEGVFAKEVRTGGLAFHSYFMEGIAPTLLQALKKVIREPRPRSARWLSTSIPEAQWQSSLARTSSAEYNVNNLVSPVLFQEALWHIPEHAVVLEIAPHALLQAVLKRGVKSSCTIIPLMKRDHKDNLEFFLTNLGKVHLT
B12: Mutant A03: engineered murine acyltransferase, mutations T161A F184A R286A (protein)
chain: NKRPLWFICSGMGTQWRGMGLSLMRLDSFRESILRSDEAVKPLGVKVSDLLLSTDERTFDDIVHAFVSLTAIQIALIDLLTSVGLKPDGIIGHSLGEVACGYADGCLSQREAVLAAYWRGQCIKDAHLPPGSMAAVGLSWEECKQRCPAGVVPACHNSEDAVTISGPQAAVNEFVEQLKQEGVAAKEVRTGGLAFHSYFMEGIAPTLLQALKKVIREPRPRSARWLSTSIPEAQWQSSLARTSSAEYNVNNLVSPVLFQEALWHIPEHAVVLEIAPHALLQAVLKAGVKSSCTIIPLMKRDHKDNLEFFLTNLGKVHLT
B13: Mutant A04: engineered murine acyltransferase, mutations T161A F184A K186A R286A (protein)
chain: NKRPLWFICSGMGTQWRGMGLSLMRLDSFRESILRSDEAVKPLGVKVSDLLLSTDERTFDDIVHAFVSLTAIQIALIDLLTSVGLKPDGIIGHSLGEVACGYADGCLSQREAVLAAYWRGQCIKDAHLPPGSMAAVGLSWEECKQRCPAGVVPACHNSEDAVTISGPQAAVNEFVEQLKQEGVAAAEVRTGGLAFHSYFMEGIAPTLLQALKKVIREPRPRSARWLSTSIPEAQWQSSLARTSSAEYNVNNLVSPVLFQEALWHIPEHAVVLEIAPHALLQAVLKAGVKSSCTIIPLMKRDHKDNLEFFLTNLGKVHLT

test: Enzyme-coupled assay: transfer of acyl-moieties from MMal-CoA to the ACP; assay type: biochemical; settings: substrate MMal-CoA, acceptor ACP from murine FAS
Experimental: An enzyme-coupled assay was performed to analyze the transfer of acyl-moieties from CoA to the ACP. Four solutions were prepared as 4× concentrated stocks in the assay buffer. Solution 1 contained the acyltransferase at the concentration range of 0.01 μM-10 μM, depending on the transfer kinetics to achieve good signal to noise ratios. Solution 2 contained the enzyme-coupled system including 8 mM α-ketoglutaric acid, 1.6 mM NAD+, 1.6 mM TPP and 60 mU/100 μL αKGDH. Solution 3 contained the methylmalonyl (MMal)-CoA at concentrations between 0.1 μM and 1,000 μM and solution 4 contained the ACP from murine FAS as a standalone protein at 240 μM. 5 μL of Solutions 1-3 were pipetted into a 384-well Small Volume HiBase Microplates (Greiner Bio-one) and mixed manually. The reactions were started by adding solution 4 with the dispenser system of the microplate reader (ClarioStar, BMG labtech). The reaction progress was recorded using the following settings: 348-20 nm; emission: 476-20 nm; gain: 1500; focal height: 11.9 mm; flashes: 17; orbital averaging: off.

B1 and B2 are within 1.5-fold of each other in Km: 14.2 µM for the first, 18.6 µM for the second.

Compared with B3, B4 is 46-fold higher in Km: 0.11 µM for the first, 5.06 µM for the second.

First: B5
Second: B6
The Km of the first is 20-fold lower: 3.33 µM for the first, 66.2 µM for the second.

Compared with B7, B8 is 3.1-fold lower in Km: 686 µM for the first, 218 µM for the second.

Going from B9 to B10, the Km falls from 58.4 µM to 1.47 µM (40-fold).

Going from B11 to B12, the Km falls from 38.8 µM to 3.41 µM (11-fold).

Work on B13 yielded a Km of 7.24 µM.

B1 and B2 are within 1.5-fold of each other in kcat: 0.101 s⁻¹ for the first, 0.093 s⁻¹ for the second.

Going from B3 to B4, the kcat rises from 0.133 s⁻¹ to 0.582 s⁻¹ (4.4-fold).

Going from B5 to B6, the kcat falls from 0.834 s⁻¹ to 0.019 s⁻¹ (44-fold).

First: B7
Second: B8
The kcat of the first is 3.7-fold higher: 0.190 s⁻¹ for the first, 0.051 s⁻¹ for the second.

First: B9
Second: B10
The kcat of the first is 1.7-fold lower: 0.030 s⁻¹ for the first, 0.051 s⁻¹ for the second.

Compared with B11, B12 is 20-fold lower in kcat: 0.428 s⁻¹ for the first, 0.021 s⁻¹ for the second.

For B13, the kcat was 0.013 s⁻¹.
